Reference: the supplement of paper PMC9233669
Fewer inactive variants are shown than the library holds.

Assays:
biotinyl-Val-oxazolone = test: self-aminoacylation, catalytic enhancement (BVO) (fold over background); higher = more active; k-Seq, kA / k0A0; sequences stand for … in GGGAAUGGAUCCACAUCUACGAAUUC…UUCACUGCAGACUUGACGAAGCUG
Summary of the method: (§1)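 Working in 50 μL HEPES/NaCl/KCl/MgCl2/CaCl2 buffer with 5% acetonitrile at pH 6.9–7.0, mutagenized RNA pools (0.43 μM; 21-nt variable region) were reacted with 2–1250 μM of each biotinyl-aminoacyl-oxazolone for 90 minutes at room temperature. Streptavidin capture followed, with quantification by triplicate qPCR and Illumina sequencing. Catalytic enhancement is reported as median kA over the uncatalyzed rate, the low-activity peak of a bimodal Gaussian fit to the data.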

biotinyl-Leu-oxazolone = test: self-aminoacylation, catalytic enhancement (BLO) (fold over background); higher = more active; k-Seq, kA / k0A0; sequences stand for … in GGGAAUGGAUCCACAUCUACGAAUUC…UUCACUGCAGACUUGACGAAGCUG
Summary of the method: as §1

biotinyl-Trp-oxazolone = test: self-aminoacylation, catalytic enhancement (BWO) (fold over background); higher = more active; k-Seq, kA / k0A0; sequences stand for … in GGGAAUGGAUCCACAUCUACGAAUUC…UUCACUGCAGACUUGACGAAGCUG
Summary of the method: as §1

biotinyl-Phe-oxazolone = test: self-aminoacylation, catalytic enhancement (BFO) (fold over background); higher = more active; k-Seq, kA / k0A0; sequences stand for … in GGGAAUGGAUCCACAUCUACGAAUUC…UUCACUGCAGACUUGACGAAGCUG
Summary of the method: as §1

biotinyl-Met-oxazolone = test: self-aminoacylation, catalytic enhancement (BMO) (fold over background); higher = more active; k-Seq, kA / k0A0; sequences stand for … in GGGAAUGGAUCCACAUCUACGAAUUC…UUCACUGCAGACUUGACGAAGCUG
Summary of the method: as §1

biotinyl-Ile-oxazolone = test: self-aminoacylation, catalytic enhancement (BIO) (fold over background); higher = more active; k-Seq, kA / k0A0; sequences stand for … in GGGAAUGGAUCCACAUCUACGAAUUC…UUCACUGCAGACUUGACGAAGCUG
Summary of the method: as §1

Row | Sequence | self-aminoacylation (biotinyl-Val-oxazolone) | self-aminoacylation (biotinyl-Leu-oxazolone) | self-aminoacylation (biotinyl-Trp-oxazolone) | self-aminoacylation (biotinyl-Phe-oxazolone) | self-aminoacylation (biotinyl-Met-oxazolone) | self-aminoacylation (biotinyl-Ile-oxazolone)
1 | CUCGUUCAAACAAUCGGUCUG [Fam1A.1 aminoacylation ribozyme variant] | 1.07 | 1.31 | 6.95 | 10.2 | 0.961 | 1.09
2 | AUUACCCUGGUUAUCGAGUGA [Fam2.1 aminoacylation ribozyme variant] | 4.27 | 8.64 | 10.3 | 25.2 | 8.65 | 3.83
3 | CCACACUACAAGCAAUGGGUC [Fam1B.1 aminoacylation ribozyme variant] | 0.842 | 0.511 | 0.735 | 0.762 | 0.778 | 0.72
4 | AAGUUUGUUAGUAGUCGCAAG [Fam3.1 aminoacylation ribozyme variant] | 0.823 | 1.06 | 0.675 | 1.02 | 0.841 | 0.852
5 | AUUAGCCUGGUCACCGAGUGA [Fam2.1 aminoacylation ribozyme variant] | 4.65 | 11.5 | 11.4 | 58.3 | 8.98 | 4.14
6 | AUUACCAUGGGCAUCGAGUGA [Fam2.1 aminoacylation ribozyme variant] | 3.13 | 6.48 | 7.88 | 30.7 | 6.01 | 3
7 | CUACUUAAAACAAUAGGUCUG [Fam1A.1 aminoacylation ribozyme variant] | 0.934 | 0.893 | 0.747 | 0.984 | 1.15 | 0.928
8 | AUUCAUCUAGGUCAUCGGGAG [Fam2.2 aminoacylation ribozyme variant] | 1.16 | 0.697 | 1.36 | 0.786 | 0.945 | 1.11
9 | AAGGUUGCUAAUAUUCGCAAG [Fam3.1 aminoacylation ribozyme variant] | 1.26 | 2.03 | 1.22 | 1.6 | 1.22 | 1.59
10 | CUACAUUAAACAAUCGGUCUG [Fam1A.1 aminoacylation ribozyme variant] | 0.819 | 0.898 | 0.75 | 0.647 | 1.14 | 0.992
11 | AUUCACCGAGGUCAUCGCGUG [Fam2.2 aminoacylation ribozyme variant] | 9.71 | 19.1 | 14.8 | 117 | 16 | 7.64
12 | CUACUACAAACAAUCGGGCUG [Fam1A.1 aminoacylation ribozyme variant] | 1.05 | 1.07 | 0.83 | 0.456 | 0.989 | 1.16
13 | AUUCACCUACGUCAUGGGGUG [Fam2.2 aminoacylation ribozyme variant] | 2.01 | 2.62 | 1.67 | 11 | 2.5 | 1.79
14 | AGACACUUCAAGCAAUCGGUC [Fam1B.1 aminoacylation ribozyme variant] | 2.64 | 3.25 | 16 | 19 | 2.62 | 2.8
15 | AUUACCCUGGUCCUCAAGUGA [Fam2.1 aminoacylation ribozyme variant] | 2.02 | 2.29 | 3.02 | 7.45 | 2.16 | 1.64
16 | AUUACCUUGGUCAUCGAGUUA [Fam2.1 aminoacylation ribozyme variant] | 1.03 | 0.814 | 0.524 | 0.913 | 1.19 | 1.18
17 | AUUUACCUAGGUUAUCGGGUG [Fam2.2 aminoacylation ribozyme variant] | 2.4 | 3.48 | 3.72 | 23.2 | 3.44 | 2.29
18 | CUACUUCCAACAAUCGGUGUG [Fam1A.1 aminoacylation ribozyme variant] | 1.03 | 1.28 | 1.09 | 0.789 | 1.06 | 0.97
19 | AUUACCCUGGUGAUCGCGUGA [Fam2.1 aminoacylation ribozyme variant] | 4.19 | 4.38 | 6.27 | 44.2 | 4.66 | 3.45
20 | AUUCACCUAGGUCAUUGAGUG [Fam2.2 aminoacylation ribozyme variant] | 2.3 | 4.17 | 3.89 | 12.3 | 3.53 | 2.6
21 | AUGCACCUAGGGCAUCGGGUG [Fam2.2 aminoacylation ribozyme variant] | 3.46 | 3.16 | 4.75 | 30.6 | 3.04 | 2.89
22 | CCUCACUUCAAGCAAUCUGUC [Fam1B.1 aminoacylation ribozyme variant] | 0.515 | 0.313 | 0.563 | 1.03 | 0.343 | 0.458
23 | AUACUUCAAACAAUCCGUCUG [Fam1A.1 aminoacylation ribozyme variant] | 0.918 | 1.09 | 1.17 | 1.42 | 1.05 | 1.04
24 | AGUCACCUAGGUCCUCGGGUG [Fam2.2 aminoacylation ribozyme variant] | 4.64 | 6.54 | 9.19 | 37.5 | 6.34 | 5.66
25 | AGUCACCUAGGUCAUCGGGUG [Fam2.2 aminoacylation ribozyme variant] | 4.99 | 6.74 | 7.24 | 38.1 | 6.24 | 4.81
26 | AAGCUUGCUAAGAGUCGCAAG [Fam3.1 aminoacylation ribozyme variant] | 2.44 | 2.66 | 3.08 | 3.44 | 2.23 | 2.51
27 | AAUUUUGCAAAUAGUCGCAAG [Fam3.1 aminoacylation ribozyme variant] | 2.31 | 1.51 | 2.48 | 2.73 | 2.02 | 2.33

Row | Sequence | self-aminoacylation (biotinyl-Val-oxazolone) | self-aminoacylation (biotinyl-Leu-oxazolone) | self-aminoacylation (biotinyl-Trp-oxazolone) | self-aminoacylation (biotinyl-Phe-oxazolone) | self-aminoacylation (biotinyl-Met-oxazolone) | self-aminoacylation (biotinyl-Ile-oxazolone)
28 | AUUCACCUAGGUCAUGGGGCG [Fam2.2 aminoacylation ribozyme variant] | 2.27 | 3.14 | 2.15 | 1.37 | 2.3 | 2.18
29 | AAGUUUUCUAAUAGUCGCAUG [Fam3.1 aminoacylation ribozyme variant] | 1.2 | 1.85 | 1.91 | 3.44 | 1.4 | 1.78
30 | CUCCUUCAAACAAUCGGCCUG [Fam1A.1 aminoacylation ribozyme variant] | 2.15 | 3.39 | 61.7 | 131 | 2.63 | 2.04
31 | AUUAUCCUGGCCAUCGAGUGA [Fam2.1 aminoacylation ribozyme variant] | 1.69 | 2.98 | 2.77 | 13.8 | 2.99 | 1.92
32 | AUUACCCUGGUCAGCGACUGA [Fam2.1 aminoacylation ribozyme variant] | 1.31 | 1.05 | 1.94 | 1.03 | 1.3 | 1.12
33 | GAGUUGGCUAAUAGUCGCAAG [Fam3.1 aminoacylation ribozyme variant] | 2.22 |  | 3.02 | 2.86 | 2.04 | 2.02
34 | AACUUUGCUAAUAGUCGCAAG [Fam3.1 aminoacylation ribozyme variant] |  | 2.46 | 2.41 | 3.71 | 2.2 | 2.22
35 | CCACACUUCAAGCAACCGGGC [Fam1B.1 aminoacylation ribozyme variant] | 3.18 | 3.43 | 4.79 | 3.1 |  | 2.77
36 | AAGCGUGCUAAUAGUCGCAAG [Fam3.1 aminoacylation ribozyme variant] | 2.05 |  | 2.33 | 4.08 | 2.62 | 2.02
37 | CCAGACUUCAAGCAUUCGGUC [Fam1B.1 aminoacylation ribozyme variant] | 2.16 | 2.08 |  |  | 2.12 | 2.03
38 | AUUCACCGAGCUCAUCGGGUG [Fam2.2 aminoacylation ribozyme variant] | 3.41 | 2.46 |  | 17.4 | 2.08 | 2.4
39 | CCACACUUCAGGCAAUCGCUC [Fam1B.1 aminoacylation ribozyme variant] | 2.04 | 2.71 |  | 17.5 |  | 2.5
40 | AUUCUCCUAGGUCAUCGGGGG [Fam2.2 aminoacylation ribozyme variant] | 3.29 | 3.88 | 3 |  | 3.48 | 2.7
41 | CCAAACUUCAAGCAAUCGGGC [Fam1B.1 aminoacylation ribozyme variant] | 2.26 |  | 2.01 |  | 2.17 | 2.08
42 | CCACACCUCAAGCAUUCGGUC [Fam1B.1 aminoacylation ribozyme variant] | 2.54 |  | 2.49 | 2.12 |  | 2.26
43 | AACUUAGCUAAUAGUCGCAAG [Fam3.1 aminoacylation ribozyme variant] |  | 3.27 |  | 2.75 | 2.42 | 2.2
44 | AUUCACCUAGGACAUCGGGUA [Fam2.2 aminoacylation ribozyme variant] |  | 2.63 | 2.09 | 7.17 | 2.72 | 2.02
45 | AAGUUUCCUAAUAGUCGCAGG [Fam3.1 aminoacylation ribozyme variant] |  | 2.06 |  | 11.8 | 2.16 | 2.09
46 | AACUUUGCUAAUAGUCGCACG [Fam3.1 aminoacylation ribozyme variant] | 2.05 | 2.15 | 3.12 | 3.22 |  | 2.49
47 | AUUACCCUGGUCCUGGAGUGA [Fam2.1 aminoacylation ribozyme variant] |  | 2.79 | 3.33 | 10.7 | 3.13 | 2.07
48 | AAAUUUUCUAAUAGUCGCAAG [Fam3.1 aminoacylation ribozyme variant] | 2.11 | 2.46 |  | 2.42 |  | 2.15
49 | CUUCACCUAGUUCAUCGGGUG [Fam2.2 aminoacylation ribozyme variant] | 2.27 | 2.87 | 2.53 |  | 2.54 | 2.15
50 | AACUUUGCUAACAGUCGCAAG [Fam3.1 aminoacylation ribozyme variant] |  | 3.43 | 2.08 | 2.06 | 2.15 | 2.17
51 | AUUACCCUGGUGAGCGAGUGA [Fam2.1 aminoacylation ribozyme variant] |  | 3.8 | 3.97 | 22.2 | 3.94 | 2.4
52 | AUUCACCUAGGUCAUCGCCUG [Fam2.2 aminoacylation ribozyme variant] | 2.44 | 3.01 | 2.11 | 8.71 |  | 2.01
53 | AAAUUCGCUAAUAGUCGCAAG [Fam3.1 aminoacylation ribozyme variant] |  | 2.19 | 2.09 | 2.65 | 2.31 | 2.89
